Test [1] concerns the target Gc protein in CCHFV-YL16070-infected Vero E6 cells (Crimean-Congo hemorrhagic fever virus, …, strain). In words: western blot. Conditions: one partner purified.
In test [2] the target is T1, sGc-S-tag (Gc ectodomain of CCHFV-YL16070 with an S-tag) (Crimean-Congo hemorrhagic fever virus, …, strain, biotin (labelled for BLI)).
T1 construct: not shown: S-tag, N-terminal, kept
Description: BLI; […] (25 ug/mL), […]; PBS with 0.1% BSA and 0.02% Tween-20; association 600 s, dissociation 600 s; Octet-Red 96. The conditions noted are these: both partners purified.

B1: Gc8 monoclonal antibody (antibody, V domains shown)
VH: QVQLQQPGAEVVKPGASVKMSCKASGYTFTSYSMHWVKQTPGQGLEWIGAIYPGNGDTSYNQKFKGKATLTADKSSSTAYMQLSSLTSEDSAGYYCARGDQYYGYFDFWGQGTTLTVSS
VL: DIQMTQSPASLSASVGETVTITCRTSENIYSFLAWYQQKQGKSPQRLVSHAKALAEGVPSRFSGSGTGTQFSLKINSLQPEDFGSYYCQHHYGIPLTFGAGTKLELK
notes: also called mAb Gc8; copies: 2 + 2
Regarding B1, the binding result in test [1] is given as “binds”. The molecule further showed a Kd in test [2] of 0.0834 nM.

B2: Gc13 monoclonal antibody (antibody, V domains shown)
VH: QVQLQQSGPEVVRPGVSVKISCKGSGYTFTDYATHWVKQSHVKSLEWIGVISTYNGETDCNQKFKGKATMTVDKSSSTAYMELARLTSEDSAIYYCANGYYQAMDYWGQGTSVTVSS
VL: DIQMTQTPSSLSASLGDRVTISCRASQDISNYLNWYQQRPDGTLKLLIYYTSRLHSGVPSRFSGSGSGTDYSLTISNLEQEDIATYFCQQGSTLPWTFGGGTKLEIK
notes: also called mAb Gc13; copies: 2 + 2
Consider B2, for which, in test [1], the binding result was “binds”. Further, in test [2], binding was put at a Kd of 0.0324 nM.

The values above are taken from article PMC10863865 (PLOS Pathogens, 2024).
